Consider 21 molecules from patent US5773001 (American Cyanamid Company, dated 1998).

Like-named read-outs stand apart in the source and are kept apart here.

Experiment [1] addresses T1, glycoprotein antigen present on colon cancer cells, recognized by A33 (Homo sapiens (Human)) (UniProt Q99795).
T1 sequence: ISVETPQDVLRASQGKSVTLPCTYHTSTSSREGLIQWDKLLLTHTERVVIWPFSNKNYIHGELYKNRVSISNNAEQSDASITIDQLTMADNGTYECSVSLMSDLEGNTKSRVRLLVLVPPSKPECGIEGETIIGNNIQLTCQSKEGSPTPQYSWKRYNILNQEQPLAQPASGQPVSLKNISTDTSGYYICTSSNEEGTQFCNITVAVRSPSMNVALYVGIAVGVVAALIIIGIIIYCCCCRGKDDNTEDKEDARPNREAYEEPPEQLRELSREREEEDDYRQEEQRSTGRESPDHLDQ

Experiment [2] deals with T1, glycoprotein antigen present on colon cancer cells, recognized by A33 (Homo sapiens (Human)). Kind of experiment: competition with 125I-labelled native antibody on COLO 205 cells; IC50 (reference) / IC50 (sample).
Experiment [3] deals with polyepithelial mucin (PEM) antigen on cells (human) (UniProt P15941).
The target of experiment [4] is CD33 antigen (human) (UniProt P20138).
Experiment [5] shares this target. Kind of experiment: competition with 125I-labelled native antibody on HEL 92.1.7 cells; IC50 (reference) / IC50 (sample).
Experiment [6] shares this target. The source holds these as a separate data set.
The target in experiment [7] is T1, glycoprotein antigen present on colon cancer cells, recognized by A33 (Homo sapiens (Human)). This is another data set of the same source.
In experiment [8] the target is CD33 antigen (human) (UniProt P20138). This is another data set of the same source.
Experiment [9] shares this target. This is another data set of the same source.
Experiment [10] has the same target. The source holds these as a separate data set.
Experiment [11] shares this target. This is another data set of the same source.
For experiment [12] the target is unchanged. This is another data set of the same source.
For experiment [13] the target is unchanged. This is another data set of the same source.
For experiment [14] the target is unchanged. This is another data set of the same source.
Experiment [15] has the same target. This is another data set of the same source.
The target is the same in experiment [16]. Kind of experiment: competition with 125I-labelled native antibody on HEL 92.1.7 cells; IC50 (reference) / IC50 (sample). The source holds these as a separate data set.
The target is the same in experiment [17]. The source holds these as a separate data set.
The target is the same in experiment [18]. This is another data set of the same source.
Experiment [19] has the same target. This is another data set of the same source.
The target is the same in experiment [20]. The source holds these as a separate data set.
For experiment [21] the target is unchanged. The source holds these as a separate data set.
For experiment [22] the target is unchanged. The source holds these as a separate data set.
The target is the same in experiment [23]. The source holds these as a separate data set.
The target is the same in experiment [24]. This is another data set of the same source.

In the case of “Conjugate of 4-(4-acetylphenoxy)butanoic acid (7) condensed with calicheamicin gamma dimethyl hydrazide and h-A33 (antibody)”, the In vitro IC50 (3H-thymidine incorporation) in [1] came to 3.55 ng/mL. The molecule further displayed a Rel. Affinity in experiment [2] of 0.91.
“Conjugate of 4-(4-acetylphenoxy)butanoic acid (7) condensed with Calicheamicin N-acetyl gamma dimethyl hydrazide and h-CT-M-01 (antibody)”: the In vitro IC50 (3H-thymidine incorporation) in experiment [3] is 0.048 ng/mL.
The molecule “Conjugate of 4-(4-acetyl-2,6-dimethoxyphenoxy)butanoic acid (14) condensed with Calicheamicin N-acetyl gamma dimethyl hydrazide and m-P67.6 (antibody)” gave an In vitro IC50 (3H-thymidine incorporation) in experiment [4] of 0.015 ng/mL. In [5], this molecule came in with a Rel. Affinity of 1.18.
Consider “Conjugate of 4-(2,3-Dimethoxy-5-formylphenoxy)butanoic acid (13) condensed with Calicheamicin N-acetyl gamma dimethyl hydrazide and m-P67.6 (antibody)”, for which the In vitro IC50 (3H-thymidine incorporation) in experiment [6] amounted to 0.062 ng/mL. The molecule further showed a Rel. Affinity in [5] of 1.08.
As to “Conjugate of 4-(4-acetylphenoxy)butanoic acid (7) condensed with calicheamicin N-acetyl gamma dimethyl hydrazide and h-A33 (antibody)”, in experiment [7], the In vitro IC50 (3H-thymidine incorporation) turned out to be 4.03 ng/mL. Also, the Rel. Affinity in experiment [2] worked out at 1.13.
Take “Conjugate of 4-(4-acetyl-2-methylphenoxy)butanoic acid (10) condensed with Calicheamicin N-acetyl gamma dimethyl hydrazide and m-P67.6 (antibody)”: the In vitro IC50 (3H-thymidine incorporation) in [8] came to 0.041 ng/mL. In experiment [5], this molecule returned a Rel. Affinity of 1.07.
Turning to “Conjugate of 4-(4-formylphenoxy)butanoic acid (9) condensed with Calicheamicin N-acetyl gamma dimethyl hydrazide and m-P67.6 (antibody)”, in [9], the In vitro IC50 (3H-thymidine incorporation) turned out to be 0.087 ng/mL. Further, the Rel. Affinity in experiment [5] was 0.7.
In experiment [10], “Conjugate of 4-formylbenzenepropanoic acid (12) condensed with Calicheamicin N-acetyl gamma dimethyl hydrazide and m-P67.6 (antibody)” gave an In vitro IC50 (3H-thymidine incorporation) of 0.12 ng/mL. This molecule registered a Rel. Affinity in experiment [5] of 0.73.
Turning to “Conjugate of 4-(4-acetyl-2-methoxyphenoxy)butanoic acid (15) condensed with Calicheamicin N-acetyl gamma dimethyl hydrazide and m-P67.6 (antibody)”, the In vitro IC50 (3H-thymidine incorporation) in [11] came out at 0.029 ng/mL. Besides, the Rel. Affinity in experiment [5] stood at 0.8.
As to “Conjugate of 4-(3-formylphenoxy)butanoic acid (8) condensed with Calicheamicin N-acetyl gamma dimethyl hydrazide and m-P67.6 (antibody)”, in experiment [12], the In vitro IC50 (3H-thymidine incorporation) came out at 0.38 ng/mL. This molecule returned a Rel. Affinity in experiment [5] of 1.
As for “Conjugate of 3-(2-oxoethoxy)benzoic acid (6) condensed with Calicheamicin N-acetyl gamma dimethyl hydrazide and m-P67.6 (antibody)”, in experiment [13], the In vitro IC50 (3H-thymidine incorporation) amounted to 0.32 ng/mL. Besides, in experiment [5], the Rel. Affinity came out at 1.91.
In experiment [14], “Conjugate of 4-(4-formyl-2-methoxyphenoxy)butanoic acid (11) condensed with Calicheamicin N-acetyl gamma dimethyl hydrazide and m-P67.6 (antibody)” yielded an In vitro IC50 (3H-thymidine incorporation) of 0.13 ng/mL. Further, the Rel. Affinity in experiment [5] is 0.22.

B1: Conjugate of 4-(2-oxoethoxy)benzenepropanoic acid (5) condensed with Calicheamicin N-acetyl gamma dimethyl hydrazide and h-P67.6 (antibody, V domains shown)
VH: EVQLVQSGAEVKKPGSSVKVSCKASGYTITDSNIHWVRQAPGQSLEWIGYIYPYNGGTDYNQKFKNRATLTVDNPTNTAYMELSSLRSEDTDFYYCVNGNPWLAYWGQGTLVTVSS
VL: DIQLTQSPSTLSASVGDRVTITCRASESLDNYGIRFLTWFQQKPGKAPKLLMYAASNQGSGVPSRFSGSGSGTEFTLTISSLQPDDFATYYCQQTKEVPWSFGQGTKVEVKR
modifications: drug-linker amide on lysine side chains, sites not stated; drug-linker amide on lysine side chains, sites not stated
Molecule B1 had an In vitro IC50 (3H-thymidine incorporation) in experiment [15] of 2.22 ng/mL. For the same molecule, the Rel. Affinity in experiment [16] is 1.09.

B2: Conjugate of 4-formylbenzenepropanoic acid (12) condensed with Calicheamicin N-acetyl gamma dimethyl hydrazide and h-P67.6 (antibody, V domains shown)
VH: B1 VH
VL: B1 VL
modifications: drug-linker amide on lysine side chains, sites not stated; drug-linker amide on lysine side chains, sites not stated
B2: the In vitro IC50 (3H-thymidine incorporation) in [17] stood at 1 ng/mL. Besides, the Rel. Affinity in [16] is 0.73.

B3: Conjugate of 4-(4-formyl-2-methoxyphenoxy)butanoic acid (11) condensed with Calicheamicin N-acetyl gamma dimethyl hydrazide and h-P67.6 (antibody, V domains shown)
VH: B1 VH
VL: B1 VL
modifications: drug-linker amide on lysine side chains, sites not stated; drug-linker amide on lysine side chains, sites not stated
B3 came in with an In vitro IC50 (3H-thymidine incorporation) in experiment [18] of 3.8 ng/mL. Moreover, the Rel. Affinity in [16] is 0.73.

B4: Conjugate of 4-(2,3-dimethoxy-5-formylphenoxy)butanoic acid (13) condensed with Calicheamicin N-acetyl gamma dimethyl hydrazide and h-P67.6 (antibody, V domains shown)
VH: B1 VH
VL: B1 VL
modifications: drug-linker amide on lysine side chains, sites not stated; drug-linker amide on lysine side chains, sites not stated
B4 came in with an In vitro IC50 (3H-thymidine incorporation) in [19] of 1.1 ng/mL. This molecule came in with a Rel. Affinity in experiment [16] of 1.16.

B5: Conjugate of 4-(4-acetylphenoxy)butanoic acid (7) condensed with calicheamicin gamma dimethyl hydrazide and h-P67.6 (antibody, V domains shown)
VH: B1 VH
VL: B1 VL
modifications: drug-linker amide on lysine side chains, sites not stated; drug-linker amide on lysine side chains, sites not stated
Regarding B5, in [20], the In vitro IC50 (3H-thymidine incorporation) amounted to 0.001 ng/mL. For the same molecule, the Rel. Affinity in experiment [16] turned out to be 0.78.

B6: Conjugate of 3-(2-oxoethoxy)benzoic acid (6) condensed with Calicheamicin N-acetyl gamma dimethyl hydrazide and h-P67.6 (antibody, V domains shown)
VH: B1 VH
VL: B1 VL
modifications: drug-linker amide on lysine side chains, sites not stated; drug-linker amide on lysine side chains, sites not stated
In turn, B6 registered an In vitro IC50 (3H-thymidine incorporation) in experiment [21] of 0.69 ng/mL. This molecule registered a Rel. Affinity in [16] of 1.19.

B7: Conjugate of 4-(4-acetyl-2,6-dimethoxyphenoxy)butanoic acid (14) condensed with Calicheamicin N-acetyl gamma dimethyl hydrazide and h-P67.6 (antibody, V domains shown)
VH: B1 VH
VL: B1 VL
modifications: drug-linker amide on lysine side chains, sites not stated; drug-linker amide on lysine side chains, sites not stated
With B7, in [22], the In vitro IC50 (3H-thymidine incorporation) worked out at 0.24 ng/mL. Further, in [16], the Rel. Affinity was found to be 1.07.

B8: Conjugate of 4-(4-acetyl-2-methoxyphenoxy)butanoic acid (15) condensed with Calicheamicin N-acetyl gamma dimethyl hydrazide and h-P67.6 (antibody, V domains shown)
VH: B1 VH
VL: B1 VL
modifications: drug-linker amide on lysine side chains, sites not stated; drug-linker amide on lysine side chains, sites not stated
Regarding B8, the In vitro IC50 (3H-thymidine incorporation) in experiment [23] amounted to 0.23 ng/mL. The same molecule registered a Rel. Affinity in experiment [16] of 0.78.

B9: Conjugate of 4-(4-acetyl-2-methylphenoxy)butanoic acid (10) condensed with Calicheamicin N-acetyl gamma dimethyl hydrazide and h-P67.6 (antibody, V domains shown)
VH: B1 VH
VL: B1 VL
modifications: drug-linker amide on lysine side chains, sites not stated; drug-linker amide on lysine side chains, sites not stated
In the case of B9, the In vitro IC50 (3H-thymidine incorporation) in experiment [24] was 0.45 ng/mL. In experiment [16], this molecule gave a Rel. Affinity of 1.16.
